Experimental findings from EP2985295A1 (Calypso Biotech SA, dated 2016) are described below.

Among the targets are Human proMMP9 (human, UniProt P14780 20-707); Cyno proMMP9 (Cynomologus monkey); rat proMMP9 (rat, UniProt P50282 20-708); mouse proMMP9 (mouse, UniProt P41245 20-730).
Holding throughout (assay): cell-based or functional assay
Assay [1] has as its target Human MMP9 (i.e. activated MMP9) (human, UniProt P14780 107-707).

Human MMP9 (i.e. activated MMP9), sequence (P14780 107-707): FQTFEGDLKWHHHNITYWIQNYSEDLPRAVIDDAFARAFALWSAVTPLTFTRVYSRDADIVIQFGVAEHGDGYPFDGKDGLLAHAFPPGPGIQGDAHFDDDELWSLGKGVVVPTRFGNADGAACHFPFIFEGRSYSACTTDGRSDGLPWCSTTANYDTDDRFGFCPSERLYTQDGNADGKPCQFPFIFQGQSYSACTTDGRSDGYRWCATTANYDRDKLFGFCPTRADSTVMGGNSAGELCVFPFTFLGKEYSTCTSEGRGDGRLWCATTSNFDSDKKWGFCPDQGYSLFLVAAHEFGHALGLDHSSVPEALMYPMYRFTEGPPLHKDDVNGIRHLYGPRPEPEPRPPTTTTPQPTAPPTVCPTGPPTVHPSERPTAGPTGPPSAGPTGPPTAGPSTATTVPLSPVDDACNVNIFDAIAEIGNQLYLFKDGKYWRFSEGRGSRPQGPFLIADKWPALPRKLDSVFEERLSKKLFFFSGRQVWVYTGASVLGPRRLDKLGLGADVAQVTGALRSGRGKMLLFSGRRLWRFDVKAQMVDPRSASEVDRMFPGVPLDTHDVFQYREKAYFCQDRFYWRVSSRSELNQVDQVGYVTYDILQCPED
rat proMMP9, sequence (P50282 20-708): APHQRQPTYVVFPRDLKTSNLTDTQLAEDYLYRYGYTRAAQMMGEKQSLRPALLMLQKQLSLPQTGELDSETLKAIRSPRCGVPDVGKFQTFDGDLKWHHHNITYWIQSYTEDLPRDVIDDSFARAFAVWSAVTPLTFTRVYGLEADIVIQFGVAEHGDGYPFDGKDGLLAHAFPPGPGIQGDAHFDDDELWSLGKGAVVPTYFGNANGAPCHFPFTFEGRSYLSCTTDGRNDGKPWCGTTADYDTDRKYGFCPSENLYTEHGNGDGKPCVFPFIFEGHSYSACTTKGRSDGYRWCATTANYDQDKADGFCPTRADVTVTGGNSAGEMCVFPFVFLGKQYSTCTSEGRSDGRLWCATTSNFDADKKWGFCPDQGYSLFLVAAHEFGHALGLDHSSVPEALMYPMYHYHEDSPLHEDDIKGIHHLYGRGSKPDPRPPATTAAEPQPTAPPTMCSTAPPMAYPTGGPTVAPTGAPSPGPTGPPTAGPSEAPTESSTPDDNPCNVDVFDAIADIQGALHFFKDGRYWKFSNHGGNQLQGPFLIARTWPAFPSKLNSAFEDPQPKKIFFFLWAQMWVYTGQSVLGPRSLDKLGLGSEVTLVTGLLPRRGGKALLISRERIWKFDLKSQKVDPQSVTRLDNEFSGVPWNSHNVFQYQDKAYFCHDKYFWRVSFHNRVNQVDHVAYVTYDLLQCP
Human proMMP9, sequence (P14780 20-707): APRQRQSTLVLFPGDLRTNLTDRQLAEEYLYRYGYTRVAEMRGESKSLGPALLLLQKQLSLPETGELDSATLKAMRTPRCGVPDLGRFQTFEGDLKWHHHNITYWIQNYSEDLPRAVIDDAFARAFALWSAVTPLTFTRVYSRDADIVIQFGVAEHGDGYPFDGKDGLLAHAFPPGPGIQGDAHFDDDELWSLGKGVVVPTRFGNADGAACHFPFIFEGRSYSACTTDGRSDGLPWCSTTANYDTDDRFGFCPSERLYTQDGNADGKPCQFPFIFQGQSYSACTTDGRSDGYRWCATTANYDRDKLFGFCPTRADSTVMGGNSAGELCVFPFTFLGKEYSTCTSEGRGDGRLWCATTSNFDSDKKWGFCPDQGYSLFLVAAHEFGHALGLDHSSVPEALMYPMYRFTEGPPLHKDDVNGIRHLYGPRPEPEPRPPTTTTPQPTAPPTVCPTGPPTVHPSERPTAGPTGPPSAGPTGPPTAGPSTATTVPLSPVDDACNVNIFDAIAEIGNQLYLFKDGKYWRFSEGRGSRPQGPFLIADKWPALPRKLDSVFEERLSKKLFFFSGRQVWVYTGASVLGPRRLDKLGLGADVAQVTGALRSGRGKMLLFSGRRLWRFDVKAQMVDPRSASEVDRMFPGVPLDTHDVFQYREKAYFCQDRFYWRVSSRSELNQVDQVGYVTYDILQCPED
mouse proMMP9, sequence (P41245 20-730): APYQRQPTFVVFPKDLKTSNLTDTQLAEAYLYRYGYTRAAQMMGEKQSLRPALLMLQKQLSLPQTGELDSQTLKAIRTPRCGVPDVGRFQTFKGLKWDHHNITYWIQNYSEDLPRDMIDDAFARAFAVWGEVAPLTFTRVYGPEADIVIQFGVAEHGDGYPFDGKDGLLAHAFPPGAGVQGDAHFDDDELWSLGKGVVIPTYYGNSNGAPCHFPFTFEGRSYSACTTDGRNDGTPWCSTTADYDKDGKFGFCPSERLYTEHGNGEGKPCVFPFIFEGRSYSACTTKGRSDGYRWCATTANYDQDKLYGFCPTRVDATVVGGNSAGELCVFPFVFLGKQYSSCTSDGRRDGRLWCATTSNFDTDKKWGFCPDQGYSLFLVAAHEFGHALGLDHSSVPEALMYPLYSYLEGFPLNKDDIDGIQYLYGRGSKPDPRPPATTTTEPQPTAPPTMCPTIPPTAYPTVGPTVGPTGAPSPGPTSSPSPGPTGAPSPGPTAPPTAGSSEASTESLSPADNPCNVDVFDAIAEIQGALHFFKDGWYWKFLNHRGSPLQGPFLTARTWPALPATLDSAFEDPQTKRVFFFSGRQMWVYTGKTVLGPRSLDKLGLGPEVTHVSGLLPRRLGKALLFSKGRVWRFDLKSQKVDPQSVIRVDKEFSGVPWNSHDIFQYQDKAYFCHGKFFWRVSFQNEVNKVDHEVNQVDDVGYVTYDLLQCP

B1: G03-VH-GL / G06-VL-GL1 (antibody, V domains shown)
VH: EVQLVQSGAEVKKPGASVKVSCKASGYTFTSYGISWVRQAPGQGLEWMGWISAYNGNTNYAQKLQGRVTMTTDTSTSTAYMELRSLRSDDTAVYYCARDYYGMDVWGQGTTVTVSS
VL: QAVLTQPPSASGTPGQRVTISCSGSTFNIGSNTVNWYQQLPGTAPKLLIYSDSHRPSGVPDRFSGSNSWNTASLAISGLQSEDEADYYCQAWDSSAVVFGGGTKVTVLG
As for B1, in the assay with Human proMMP9, the “Efficiency, neutralization of proMMP9 processing and/or downstream catalytic activity on DQ-gelatin (MMP3/MMP9 assay)” value (shortened to “Efficiency … on DQ-gelatin (MMP3/MMP9 assay)”) came out at 100% and the “IC50 (nM), neutralization of proMMP9 processing and/or downstream catalytic activity on DQ-gelatin (MMP3/MMP9 assay)” value (“IC50 (nM) … on DQ-gelatin (MMP3/MMP9 assay)” below) is 0.21 nM. Also, in assay [1], the “Efficiency, neutralization of catalytic activity on DQ-gelatin (MMP9 assay)” value (“Efficiency, neutralization … (MMP9 assay)” for short) was determined as 50% and the “IC50 (nM), neutralization of catalytic activity on DQ-gelatin (MMP9 assay)” value (from here on “IC50 (nM), neutralization … (MMP9 assay)”) is 0.13 nM. Moreover, in the assay with Cyno proMMP9, the “Efficiency, neutralization of processing of cyno MMP9 and/or its catalytic activity on gelatin (MMP3/MMP9 assay)” value was determined as 100% and the “IC50 (nM), neutralization of processing of cyno MMP9 and/or its catalytic activity on gelatin (MMP3/MMP9 assay)” value was found to be 0.04 nM. Besides, in the assay with rat proMMP9, the “Efficiency, neutralization of processing of rat MMP9 and/or its catalytic activity on gelatin (MMP3/MMP9 assay)” value turned out to be 100% and the “IC50 (nM), neutralization of processing of rat MMP9 and/or its catalytic activity on gelatin (MMP3/MMP9 assay)” value came out at 64.7 nM. Further, in the assay with mouse proMMP9, the “Efficiency, neutralization of processing of mouse MMP9 and/or its catalytic activity on gelatin (MMP3/MMP9 assay)” value turned out to be 30% and the “IC50 (nM), neutralization of processing of mouse MMP9 and/or its catalytic activity on gelatin (MMP3/MMP9 assay)” value was found to be 151 nM.

B2: G03-VH-GL-V1 / G06-VL-GL1 (antibody, V domains shown)
VH: EVQLVQSGAEVKKPGASVKVSCKASGYTFTSYGISWVRQAPGQGLEWMGYISAYNGNTNYAQKLQGRVTMTTDTSTSTAYMELRSLRSDDTAVYYCARDYYGMDVWGQGTTVTVSS
VL: QAVLTQPPSASGTPGQRVTISCSGSTFNIGSNTVNWYQQLPGTAPKLLIYSDSHRPSGVPDRFSGSNSWNTASLAISGLQSEDEADYYCQAWDSSAVVFGGGTKVTVLG
As to B2, in the assay with Human proMMP9, the “Efficiency … on DQ-gelatin (MMP3/MMP9 assay)” value stood at 100% and the “IC50 (nM) … on DQ-gelatin (MMP3/MMP9 assay)” value was found to be 0.19 nM. Also, in assay [1], the “Efficiency, neutralization … (MMP9 assay)” value was determined as 50% and the “IC50 (nM), neutralization … (MMP9 assay)” value was determined as 0.06 nM. In addition, in the assay with Cyno proMMP9, the “Efficiency, neutralization of processing of cyno MMP9 and/or its catalytic activity on gelatin (MMP3/MMP9 assay)” value was 100% and the “IC50 (nM), neutralization of processing of cyno MMP9 and/or its catalytic activity on gelatin (MMP3/MMP9 assay)” value amounted to 0.03 nM. In addition, in the assay with rat proMMP9, the “Efficiency, neutralization of processing of rat MMP9 and/or its catalytic activity on gelatin (MMP3/MMP9 assay)” value was 100% and the “IC50 (nM), neutralization of processing of rat MMP9 and/or its catalytic activity on gelatin (MMP3/MMP9 assay)” value was determined as 19 nM. In the assay with mouse proMMP9, the “Efficiency, neutralization of processing of mouse MMP9 and/or its catalytic activity on gelatin (MMP3/MMP9 assay)” value is 25% and the “IC50 (nM), neutralization of processing of mouse MMP9 and/or its catalytic activity on gelatin (MMP3/MMP9 assay)” value was determined as 16.4 nM.

B3: G03-VH-GL-V1-V9 / G06-VL-GL1 (antibody, V domains shown)
VH: EVQLVQSGAEVKKPGASVKVSCKASGYTFTSYGISWVRQAPGQGLEWMGYISAYNANTNYAQKLQGRVTMTTDTSTSTAYMELRSLRSDDTAVYYCARDYYGMDVWGQGTTVTVSS
VL: QAVLTQPPSASGTPGQRVTISCSGSTFNIGSNTVNWYQQLPGTAPKLLIYSDSHRPSGVPDRFSGSNSWNTASLAISGLQSEDEADYYCQAWDSSAVVFGGGTKVTVLG
With B3, in the assay with Human proMMP9, the “Efficiency … on DQ-gelatin (MMP3/MMP9 assay)” value was determined as 100% and the “IC50 (nM) … on DQ-gelatin (MMP3/MMP9 assay)” value is 0.21 nM. Also, in assay [1], the “Efficiency, neutralization … (MMP9 assay)” value was 50% and the “IC50 (nM), neutralization … (MMP9 assay)” value is 0.11 nM. Also, in the assay with Cyno proMMP9, the “Efficiency, neutralization of processing of cyno MMP9 and/or its catalytic activity on gelatin (MMP3/MMP9 assay)” value worked out at 100% and the “IC50 (nM), neutralization of processing of cyno MMP9 and/or its catalytic activity on gelatin (MMP3/MMP9 assay)” value came to 0.14 nM. For the same molecule, in the assay with rat proMMP9, the “Efficiency, neutralization of processing of rat MMP9 and/or its catalytic activity on gelatin (MMP3/MMP9 assay)” value amounted to 100% and the “IC50 (nM), neutralization of processing of rat MMP9 and/or its catalytic activity on gelatin (MMP3/MMP9 assay)” value was determined as 93.6 nM. Besides, in the assay with mouse proMMP9, the “Efficiency, neutralization of processing of mouse MMP9 and/or its catalytic activity on gelatin (MMP3/MMP9 assay)” value worked out at 25% and the “IC50 (nM), neutralization of processing of mouse MMP9 and/or its catalytic activity on gelatin (MMP3/MMP9 assay)” value worked out at 12.6 nM.
